Source: publication PMC9579148

Key:
[1] = molecular target: recombinant SARS-CoV-2 M^pro (Proteros) (SARS-CoV-2)
[2] = molecular target: recombinant SARS-CoV-2 M^pro (Proteros) (SARS-CoV-2); test: FRET enzymatic inhibition assay

Substance: compound 4 (acetyl-Gly-Phe-His aldehyde, tripeptide derivative of AT1001)
- IC50 of inhibition of M^pro enzymatic activity (FRET substrate cleavage) [1]: 2510 nM
- Kd [2]: 1260 nM

Substance: compound 57 (BOC-Gly-Phe-His aldehyde) (peptide)
- IC50 of inhibition of M^pro enzymatic activity (FRET substrate cleavage) [1]: 6490 nM
- Kd [2]: 3260 nM

Substance: compound 58 (octanoyl-Gly-Phe-His aldehyde) (peptide)
- IC50 of inhibition of M^pro enzymatic activity (FRET substrate cleavage) [1]: 2370 nM
- Kd [2]: 1190 nM
